{"source": "paper PMC10382582", "about": "(Cell Discovery, 2023)", "binders": {"B1": {"name": "pan-sarbecovirus mAb S2H97 (antibody, V domains shown)", "VH": "QVRLVQSGAEVKKSGESLKISCKGSGYSFTSYWIGWVRQMPGKGLEWMGIIYPGDSDTRYSPSFQGQVTISADKSISTVYLQWSSLKASDTAMYYCARQWSHYTYDYYYWGQGTLVTISS", "VL": "QSVLTQPASVSGSPGQSITISCTGISSDVGGYNSVSWYQQHPGKAPKLMIYDVTNRPSGVSNRFSGSKSGNTASLTISGLQAEDEADYYCSSYTSSSTPPYVFGTGTKVSVL"}}, "biological_target": "biotinylated SARS-CoV-2 prototype RBD (SARS-CoV-2 (prototype), UniProt P0DTC2, biotin (biotinylated; site not stated))", "assay": "BLI", "conditions": "both partners purified", "data": [{"binder": "B1", "values": [{"measurement": "binding result", "value": "binds"}]}]}
